Activity data for 1 substance are collected here from patent US20130274129.

This data set relates to AvrBs3-KRAB. Briefly: cell_activity. The following applies: two copies of TAL site, LacZ reporter, 293FT; around 40% with one copy.

“AvrBs3 TAL binding site in CMV promoter reporter” returned an activity of 70 % repression.
